US10738094B2, “Peptides and combination of peptides for use in immunotherapy against ovarian cancer and other cancers” (immatics biotechnologies GmbH, priority 2015, dated 2020)

Target: HLA-A*02:01 (Homo sapiens, UniProt P04439, D140Y/D185E/D98H/E176V/E277Q/G131W/G231S/I119V/I121R/I166T/I218V/L300P/L318F/N151K/N90K/P208A/P217A/Q86G/Q94H/R138H/R169H/T345S)
Assay: MHC binding assay (UV-ligand exchange, beta2m ELISA)
Conditions: binding to HLA-A*02:01 ranged by peptide exchange yield (UV-ligand exchange, β2m ELISA)
Excerpt: Candidate peptides for T cell based therapies according to the present invention were further tested for their MHC binding capacity (affinity). The individual peptide-MHC complexes were produced by UV-ligand exchange, where a UV-sensitive peptide is cleaved upon UV-irradiation, and exchanged with the peptide of interest as analyzed. Only peptide candidates that can effectively bind and stabilize the peptide-receptive MHC molecules prevent dissociation of the MHC complexes. To determine the yield of the exchange reaction, an ELISA was performed based on the detection of the light chain (β2m) of stabilized MHC complexes. The assay was performed as generally described in Rodenko et al. (Rodenko et al., 2006).
96 well MAXISorp plates (NUNC) were coated over night with 2 ug/ml streptavidin in PBS at room temperature, washed 4× and blocked for 1 h at 37° C. in 2% BSA containing blocking buffer. […] Peptide-MHC monomers of the UV-exchange reaction were diluted 100 fold in blocking buffer. Samples were incubated for 1 h at 37° C., washed four times, incubated with 2 ug/ml HRP conjugated anti-β2m for 1 h at 37° C., washed again and detected with TMB solution that is stopped with […]. Absorption was measured at 450 nm. Candidate peptides that show a high exchange yield (preferably higher than 50%, most preferred higher than 75%) are generally preferred for a generation and production of antibodies or fragments thereof, and/or T cell receptors or fragments thereof, as they show sufficient avidity to the MHC molecules and prevent dissociation of the MHC complexes.

Peptide exchange | Substance
“+++” (≥50 = +++) | 437 (SMAPGLVIQAV; listed as Homo sapiens) [compound 437]
“+++” (≥50 = +++) | 476 (ALMERTGYSMV; listed as Homo sapiens) [compound 476]
“+++” (≥50 = +++) | 301 (FLVEDLVDSL; listed as Homo sapiens) [compound 301]
“++” (≥20% = ++) | 84 (VTFGEKLLGV; listed as Homo sapiens) [compound 84]
“+++” (≥50 = +++) | 1 (SLMEPPAVLLL; listed as Homo sapiens) [compound 1]
“+++” (≥50 = +++) | 336 (ILLTAIVQV; listed as Homo sapiens) [compound 336]
“+++” (≥50 = +++) | 78 (SLFSSLEPQIQPV; listed as Homo sapiens) [compound 78]
“+++” (≥50 = +++) | 560 (ALWDIETGQQTTT; listed as Homo sapiens) [compound 560]
“+++” (≥50 = +++) | 600 (ALAAPDIVPAL; listed as Homo sapiens) [compound 600]
“++” (≥20% = ++) | 548 (ALWENPESGEL; listed as Homo sapiens) [compound 548]
“++++” (≥75% = ++++) | 10 (FLATFPLAAV; listed as Homo sapiens) [compound 10]
“+++” (≥50 = +++) | 76 (ILIDSIYKV; listed as Homo sapiens) [compound 76]
“+++” (≥50 = +++) | 241 (SLVEVNPAYSV; listed as Homo sapiens) [compound 241]
“++” (≥20% = ++) | 440 (ALADGVTMQV; listed as Homo sapiens) [compound 440]
“++” (≥20% = ++) | 392 (ALLHPQGFEV; listed as Homo sapiens) [compound 392]
“+++” (≥50 = +++) | 189 (ALQRKLPYV; listed as Homo sapiens) [compound 189]
“++” (≥20% = ++) | 516 (AVGPASILKEV; listed as Homo sapiens) [compound 516]
“+++” (≥50 = +++) | 572 (ALADLIEKELSV; listed as Homo sapiens) [compound 572]
“++++” (≥75% = ++++) | 349 (SLTEYLQNV; listed as Homo sapiens) [compound 349]
“+++” (≥50 = +++) | 23 (VLLDDIFAQL; listed as Homo sapiens) [compound 23]
“+++” (≥50 = +++) | 90 (TLLQIIETV; listed as Homo sapiens) [compound 90]
“+++” (≥50 = +++) | 391 (YVYPQRLNFV; listed as Homo sapiens) [compound 391]
“+++” (≥50 = +++) | 605 (KLYEAVPQL; listed as Homo sapiens) [compound 605]
“++” (≥20% = ++) | 429 (GLVNDLARV; listed as Homo sapiens) [compound 429]

Peptide exchange | Substance
“++” (≥20% = ++) | 333 (FLPDANSSV; listed as Homo sapiens) [compound 333]
“++++” (≥75% = ++++) | 329 (FLVTLNNVEV; listed as Homo sapiens) [compound 329]
“++” (≥20% = ++) | 403 (KLYDRILRV; listed as Homo sapiens) [compound 403]
“+++” (≥50 = +++) | 295 (VLDRESPNV; listed as Homo sapiens) [compound 295]
“+++” (≥50 = +++) | 530 (VMYADIGGMDI; listed as Homo sapiens) [compound 530]
“+++” (≥50 = +++) | 35 (KINDTIYEV; listed as Homo sapiens) [compound 35]
“++” (≥20% = ++) | 574 (YLLQEPPRTV; listed as Homo sapiens) [compound 574]
“++” (≥20% = ++) | 9 (GAAKDLPGV; listed as Homo sapiens) [compound 9]
“+++” (≥50 = +++) | 512 (SLSEIVPCL; listed as Homo sapiens) [compound 512]
“+++” (≥50 = +++) | 286 (YLFPGIPEL; listed as Homo sapiens) [compound 286]
“+++” (≥50 = +++) | 350 (ALLDVTHSELTV; listed as Homo sapiens) [compound 350]
“+++” (≥50 = +++) | 399 (YLFEPLYHV; listed as Homo sapiens) [compound 399]
“+++” (≥50 = +++) | 302 (ALLQEGEVYSA; listed as Homo sapiens) [compound 302]
“+++” (≥50 = +++) | 201 (RLVDYLEGI; listed as Homo sapiens) [compound 201]
“++” (≥20% = ++) | 212 (ALWDQDNLSV; listed as Homo sapiens) [compound 212]
“+++” (≥50 = +++) | 635 (SLDSTLHAV; listed as Homo sapiens) [compound 635]
“+++” (≥50 = +++) | 601 (SAFPFPVTV; listed as Homo sapiens) [compound 601]
“++” (≥20% = ++) | 176 (YLMEGSYNKVFL; listed as Homo sapiens) [compound 176]
“++” (≥20% = ++) | 354 (LILEGVDTV; listed as Homo sapiens) [compound 354]
“+++” (≥50 = +++) | 518 (KLNAEVACV; listed as Homo sapiens) [compound 518]
“+++” (≥50 = +++) | 495 (FIFSEKPVFV; listed as Homo sapiens) [compound 495]
“+++” (≥50 = +++) | 82 (FLSSVTYNL; listed as Homo sapiens) [compound 82]
“+++” (≥50 = +++) | 284 (ILLSQTTGV; listed as Homo sapiens) [compound 284]
“+++” (≥50 = +++) | 236 (GLLEAKVSL; listed as Homo sapiens) [compound 236]

Peptide exchange | Substance
“+++” (≥50 = +++) | 582 (TLCDVILMV; listed as Homo sapiens) [compound 582]
“++++” (≥75% = ++++) | 347 (SLFKHDPAAWEA; listed as Homo sapiens) [compound 347]
“++++” (≥75% = ++++) | 585 (ALWDLAADKQTL; listed as Homo sapiens) [compound 585]
“+++” (≥50 = +++) | 490 (FLLQHVQEL; listed as Homo sapiens) [compound 490]
“+++” (≥50 = +++) | 362 (TLYGLSVLL; listed as Homo sapiens) [compound 362]
“+++” (≥50 = +++) | 130 (FLWNGEDSALL; listed as Homo sapiens) [compound 130]
“++” (≥20% = ++) | 373 (SLLEDKGLAEV; listed as Homo sapiens) [compound 373]
“++” (≥20% = ++) | 412 (YLDDLNEGVYI; listed as Homo sapiens) [compound 412]
“+++” (≥50 = +++) | 308 (SQYSGQLHEV; listed as Homo sapiens) [compound 308]
“+++” (≥50 = +++) | 49 (YLPAVFEEV; listed as Homo sapiens) [compound 49]
“++” (≥20% = ++) | 398 (KLLEEDGTIITL; listed as Homo sapiens) [compound 398]
“+++” (≥50 = +++) | 394 (LLAVIGGLVYL; listed as Homo sapiens) [compound 394]
“+++” (≥50 = +++) | 487 (LLINSVFHV; listed as Homo sapiens) [compound 487]
“++” (≥20% = ++) | 121 (GVVDPRAISVL; listed as Homo sapiens) [compound 121]
“++” (≥20% = ++) | 15 (VLLTFKIFL; listed as Homo sapiens) [compound 15]
“+++” (≥50 = +++) | 198 (KTINKVPTV; listed as Homo sapiens) [compound 198]
“++++” (≥75% = ++++) | 178 (ALTEIAFVV; listed as Homo sapiens) [compound 178]
“+++” (≥50 = +++) | 144 (YIMEPSIFNTL; listed as Homo sapiens) [compound 144]
“+++” (≥50 = +++) | 594 (IMLKGDNITL; listed as Homo sapiens) [compound 594]
“+++” (≥50 = +++) | 163 (ALDEMGDLLQL; listed as Homo sapiens) [compound 163]
“++” (≥20% = ++) | 228 (AMQEYIAVV; listed as Homo sapiens) [compound 228]
“+++” (≥50 = +++) | 583 (ILANDGVLLAA; listed as Homo sapiens) [compound 583]
“++” (≥20% = ++) | 510 (KLYSVVSQL; listed as Homo sapiens) [compound 510]
“++++” (≥75% = ++++) | 553 (SLLNQDLHWSL; listed as Homo sapiens) [compound 553]
